Test results: publication PMC6386982, “A Thermostable Monoacylglycerol Lipase from Marine Geobacillus sp. 12AMOR1: Biochemical Characterization and Mutagenesis Study” (International Journal of Molecular Sciences, 2019)

Assays:
Experiment in all cases: purified protein
Assay type in all cases: biochemical, Geobacillus sp. 12AMOR1
Settings in all cases: 20 mM Tris-HCl pH 8.0, 30 °C
[1] = system: T1, CCCC(=O)Oc1ccc([N+](=O)[O-])cc1
T1 construct: catalytic triad Ser97, Asp196, His226

[2] = system: T2, CCCCCC(=O)Oc1ccc([N+](=O)[O-])cc1
T2 construct: catalytic triad Ser97, Asp196, His226

[3] = system: T3, CCCCCCCC(=O)Oc1ccc([N+](=O)[O-])cc1
T3 construct: catalytic triad Ser97, Asp196, His226

Row | Substance | Km [1] [mM] | kcat [1] [s⁻¹] | kcat/Km [1] [M⁻¹ s⁻¹] | Km [2] [mM] | kcat [2] [s⁻¹] | kcat/Km [2] [M⁻¹ s⁻¹] | Km [3] [mM] | kcat [3] [s⁻¹] | kcat/Km [3] [M⁻¹ s⁻¹]
1 | GMGL (Geobacillus sp. monoacylglycerol lipase) (Geobacillus sp. 12AMOR1; L142A) | 14.78 | 15.9 | 1080 | 1.66 | 4.08 | 2460 | 4.65 | 1.29 | 280
2 | GMGL (Geobacillus sp. monoacylglycerol lipase) (Geobacillus sp. 12AMOR1; I170F) | 2.37 | 3.31 | 1210 | 1.60 | 3.67 | 2290 | 4.63 | 2.08 | 450
3 | GMGL (Geobacillus sp. monoacylglycerol lipase) (Geobacillus sp. 12AMOR1) | 6.80 | 9.74 | 1430 | 4.06 | 4.31 | 1060 | 2.83 | 2.58 | 910
4 | GMGL (Geobacillus sp. monoacylglycerol lipase) (Geobacillus sp. 12AMOR1; I145A) | 9.56 | 3.25 | 340 | 1.34 | 2.02 | 1510 | 8.32 | 0.95 | 110
